From article PMC8041783, “A positive charge region of Salmonella FliI is required for ATPase formation and efficient flagellar protein export” (Communications Biology, 2021)
Where a chain is given by its changes, count along the chain named. In names and notes the source's numbering stands.

B1: His-FliI(R26A/R27A/R33A/R76A/R93A) (enzyme)
chain: MTTRLTRWLTALDNFEAKMALLPAVAAYGRLTAATGLVLEATGLQLPLGATCIIERQDGPETKEVESEVVGFNGQALFLMPLEEVEGILPGAAVYARNGHGDGLQSGKQLPLGPALLGRVLDGGGKPLDGLPAPDTLETGALITPPFNPLQRTPIEHVLDTGVRAINALLTVGRGQRMGLFAGSGVGKSVLLGMMARYTRADVIVVGLIGERGREVKDFIENILGPDGRARSVVIAAPADVSPLLRMQGAAYATRIAEDFRDRGQHVLLIMDSLTRYAMAQREIALAIGEPPATKGYPPSVFAKLPALVERAGNGIHGGGSITAFYTVLTEGDDQQDPIADSARAILDGHIVLSRRLAEAGHYPAIDIEASISRAMTALITEQHYARVRLFKQLLSSFQRNRDLVSVGAYAKGSDPMLDKAITLWPQLEAFLQQGIFERADWEDSLQALDLIFPTV
notes: FliI of Salmonella enterica, UniProt P26465, with R26A/R27A/R33A/R76A/R93A; also called FliI-5A; His-FliI-5A; source: S. enterica SJW1368, pTrc99A-based plasmid co-expressing FliH; in lysate (Ni pull-down) and purified (Ni-NTA, then SEC to remove FliH)
B2: His-FliI(R26A/R27A/R33A) (enzyme)
chain: B1 chain with A76R, A93R
notes: FliI of Salmonella enterica, UniProt P26465, with R26A/R27A/R33A; also called FliI-3A; His-FliI-3A; source: E. coli BL21 (DE3) Star, pET19b-based plasmid, purified (Ni-NTA, Superdex 200 SEC)
B3: His-FliI(R26A/R27A/R33A/R76A) (enzyme)
chain: B1 chain with A93R
notes: FliI of Salmonella enterica, UniProt P26465, with R26A/R27A/R33A/R76A; also called FliI-4A; His-FliI-4A; source: S. enterica SJW1368, pTrc99A-based plasmid co-expressing FliH; in lysate (Ni pull-down) and purified (Ni-NTA, then SEC to remove FliH)

Assays:
[1] = target: the molecule itself; test: negative-stain electron microscopy; purified FliI 1 μM in 50 mM Tris-HCl pH 8.0, 113 mM NaCl, 0.8 mM EDTA, 1 mM DTT with 5 mM MgCl2, 5 mM ADP, 5 mM AlCl3, 15 mM NaF, 20 min at room temperature; uranyl acetate stain; reference-free 2D class averages (RELION); monomers to hexameric ring
GST-FliJ = target: T1, GST-FliJ (Salmonella enterica, UniProt P0A1K1 1-147); test: pull-down; GST affinity chromatography: purified His-FliI or His-FliI-5A mixed with purified GST or GST fusions, dialysed overnight against PBS at 4 °C; Glutathione Sepharose 4B; wash 10 ml PBS; elution with 10 mM reduced glutathione; CBB and anti-FliI immunoblot; details: both partners purified
T1 construct: FliJ of Salmonella enterica; source: S. enterica SJW1368, purified (Glutathione Sepharose 4B)
T1 sequence (P0A1K1 whole entry, the tested form may be a part): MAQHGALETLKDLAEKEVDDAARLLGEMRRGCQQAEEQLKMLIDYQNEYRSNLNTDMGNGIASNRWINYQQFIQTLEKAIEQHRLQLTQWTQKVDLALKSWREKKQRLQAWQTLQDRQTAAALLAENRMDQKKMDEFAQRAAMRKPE

| Binder | stoichiometry N [1] | binding result (GST-FliJ) |
| --- | --- | --- |
| B1 | 6 | binds |
| B2 | ~6 |  |
| B3 | 6 |  |
